Test results taken from patent US11781164B2, “Demethylation of reticuline and derivatives thereof with fungal cytochrome P450” (priority 2017, dated 2023).

Assays:
thebaine [1] = test: Bioconversion of thebaine (N-demethylation to northebaine) by S. cerevisiae expressing cytochrome P450s and CPRs, LC-MS; conditions: 0.1 mM thebaine, 0.1 M potassium phosphate buffer pH 7, 72 h, 30° C.
oripavine = test: Bioconversion of oripavine (N-demethylation to nororipavine) by S. cerevisiae expressing cytochrome P450s and CPRs, LC-MS; conditions: 0.5 mM oripavine, 72 h
thebaine [2] = test: Demethylation of thebaine by new cytochrome P450 fungal and plant homologs co-expressed with CPRs in S. cerevisiae; conditions: 0.5 mM thebaine, SC or DELFT media pH 7, 72 h, 30° C.; co-expressed with Cel_CPR_co, Tp_CPR_5866, Tp_CPR_DN10898 or POR1

B1: Cel_CPR_co: codon-optimized cytochrome P450 reductase from Cunninghamella elegans (protein)
chain: MAQQTPAVIDTLDLILLGSIGLGTIAWFTRRQLSERLFGTGQSNATPKPTTPQAPKRERNFVKVMEQQGRKVIFFYGSQTGTAEDFASRLAKQCSQKYGVSCMTADIEMYDLSYLDTLSEDSLVCFVMATYGEGEPTDNAVDFWEQFITDESPVFSEGGETLENLRYLMFGLGNKTYEHYNAVARILDKKLTGLGAKRIGERGEGDDDGSLEEDFLAWQESMWPTFCDALGVDENNAQQGPRQASYSVDELKEEYKNDDVYFGELGTKSKDSSRVVYDAKRPYNAPITTRELFNSSERHCLHVDIDISGTNLSYQTGDHVAMWPTNNEDEVLRLANILGLQDKLDNVISVKAIDPAAPKQHPFPVPTTYRAIFRHYIDICAPASRQSLMSFVEFAPTDSAKDLLKLLATDKDEYRLKVGEAVRNLGEVLELVSGNDKDTQPGSFTSVPFDLIVETIPRLQPRYYSISSSSKENSSIISATCVTLAYQPDPTPDRTVYGVNTNFLYRIHTQSSDNDIQGLPKYDLAGPRKAFLNEQGQSHKLPIHIRRSQFKLPRNTSCPVIMIGPGTGVAPFRGFVRERALQKKEGKSVGPTVLFFGNRHSEHDFLYSDEWPELFNTLGDDSKLITAFSRETEHKVYVQHRLEENGKDIWQLLEKGAYIYVCGDARNMARDVNQTFVNLAMEYGEKTEQKALDYVKSLRNTGRYQEDVWS
modifications: codon-optimized; Cunninghamella elegans
Thebaine [1]
  support of N-demethylase activity of P450_DN15259_c0_g1_i7_A by CPR (northebaine): found to support N-demethylase activity

B2: CPR_DN5866_c0_g1_Cd9: native cytochrome P450 reductase clone from T. piriforme, day 9 cDNA (pEV31725) (protein)
chain: MAQSSPALLDSLDIVFLGTIGLGTIAWFARRQIAERIFGSKDDANKNVGNGNAPTAPKRERNFVKVMQEQGRKVIFFYGSQTGTAEDYASRLAKECSQKYGVSCMTADIELYDLTYLDTVPEDFLVFFIMATYGEGEPTDNAVDFWEQLTEEEPQFSEGDTLGNLRYVVFGLGNKTYEHYNEVARRMDKLLTKLGAKRIGERGEGDDDASLEEDFLAWQDSMWPAFCDALGVDESNGSSGPRQAMYAVEELEGQEAVYLGELGEKPKEGVKVVYDAKRPYNAPLVSQDLFKNTDRHCLHIDIDVSDSNLSYQTGDHIAIWPTNSDDEVARLASLLGLTDKLDTSVMVKAIDSTASKQYPFPVPATYRSIFRHYLDICAPASRQTLMSLVEYAPTEASKEALRLLSKDKDEYRLKVGEAVRNLGEVLELAAGADARPGLFSTVPFDLIVESVSRLQPRYYSISSSAKESPKVIAVTAVTLTYNPDPTPERTVYGVNTNYLWQIHAAKHNVNDGQRYPTYDLAGPRNALQGAKVPVHIRRSQFKLPRNPTVPVIMVGPGTGVAPFRGFVRERAAQKTDGKPVGPTLLFFGCRNSQQDFLYKDEWPELFATLGDESRIVTAFSRETPQKVYVQHRLQENGEELWNLLQKGAYIYVCGDAKNMARDVNQTFVNFAIEFGGQTEEKAHDYVKNLRNSGRYQEDVWS
modifications: Thamnostylum piriforme
Thebaine [1]
  support of N-demethylase activity of P450_DN15259_c0_g1_i7_A by CPR (northebaine): yielded more northebaine

B3: CPR_DN10898_c0_g1_1A: native cytochrome P450 reductase clone from T. piriforme (pEV31730) (protein)
chain: MSKKPTTFAISPLDLLLLGTLGIGALLYITRKLRAAPPPAAGDAARPSDKAPSNKPERNFVKLMEQQKRRVIFFYGSQTGTAEDYASRLAKESSQKYGVSSMAADIELYDLSYLDTVPEDKLVVFVMATYGEGEPTDNAVDFWETLTDEAPMFSLGEELAPLRNLNYIVFGLGNKTYEHYNEVARVLDKRLAALGATRHGVRGEGDDDASLEEDFLAWQEDMWPAFCAALNVDESNAQAGPRQAMYGVKELEGHDENGLFLGELGEWLQPEQLQKQTAVHDAKHPYLAPIAASRDLFSHAADRHCLHLEVDIASSNLTYQTGDHIAIWPTNNDVEVLRLATVLGLADKLDTAIMVKALDSAASKKYPFPVPTTYRAAFKHYLDICSPASRQTLISLVDYAPTASSKDALHKLATDKDAYKTQVSEAARNLAEVLELCQDDEGTTAAPGFFSTVPFDLIVESVSRLQPRYYSISSSSLTSPKSVAVTAVTLSYQPSTTKSRTVYGVNTNYLWRIHAPHDASVPAYDLDGPRNTLQGKKVPVHIRRSTFKLPRNTKLPVIMVGPGTGVAPFRGFIHDRVHQKQSGKEVGPTVLFYGCRHSKQDFLYAEEWPALFEALGEGSQLITAFSRESAQKVYVQHRLKEHGEQMWKYIEQGAYIYVCGDAKNMARDVQQTFIEFAQALGNKTESQAQDYVKNLRNTGRYQEDVWS
modifications: Thamnostylum piriforme
Thebaine [1]
  support of N-demethylase activity of P450_DN15259_c0_g1_i7_A by CPR (northebaine): yielded more northebaine

B4: P450_DN12791_c0_g1_C: native cytochrome P450 clone from Thamnostylum piriforme (plasmid pEV31522) (protein)
chain: MAILQNLVLQSDQRHLGVVTAAVFLSAYALYRHESKKELGNECPTVPYTNPMFGSTDEYRKNPAAFVEKWSAALGPVFRVHIFGRMQTVVSGRYVREVLFNDNFSFVEGIRTRFDLRLLTGIPNSHLNDKDVREVVVKSLTAQMKKYTPRAVHYLSVGLQEALGDLKDPRTLDNLFLTVQNMVAKASASIFVGEELCNNIELVDTFKHVTSDIGSEIRLDNTWLEFFKTINQIRMWYVGKHSPRVTKHRRQLIQAMAPEIDRRLQGLAGNDPSWTRPEDILQEIMENYPSPSTVPADIYTYYANWMIVLIFASVHTTTEHATIVLYRLLQQPELIDELLQEQKEALGQGTVFTGEVIRKLVKLDSVCRESLRIKNEYFGLPHRNMSHENISLSNGVVIKPGDNVMLNVWTNHHDSDLQKDVHGNHDKFEPFRYVNADRPATKIGDDYLIFGEGKHACPGRWFALQEIKTIVSVLIRDYTLTPCGPIVFPSGTSTGIPSGEVTIQRKSEV
modifications: Thamnostylum piriforme
oripavine; pH 7, co-expressed with Cel_CPR_co
  nororipavine titers: highest nororipavine titers
oripavine; pH 7, with CPRs from C. elegans, G. fujikuroi and S. cerevisiae
  oripavine N-demethylation (nororipavine), screening of T. piriforme P450 candidates: identified as an oripavine N-demethylase

B5: CYPDN5: cytochrome P450 homolog A0A1X0RYU8 from Rhizopus microsporus, codon-optimized (protein, listed as Rhizopus microsporus)
chain: MELTEIAIETYHRALDKLVPILQKRSKRSYIGVAVALVVLERIYSFFRVPKSIRHIPAVPYFAMAKSFLTSEAPSSRHQRIVLPVIEKGNGIYVNKLPLEWTVNVATPTSAKHVLLKSEIYPKSESFLKLLGPQSPAVLFLGGKNVGFVNGDAWRKQRKIMNPAFHRSMPIQTMASVMPDFFSAIDKYGDEGIPISTIMRDFTLDVLGHTAFGFDFKALKGDPDNWTRTYHIINNALFNPTANMLTSLNPILSIISPERRRILEAIKKLNGMLEAMIKQKRQEVQSNAQAHAPENEKDLLTLMLEAQQRGEGLATDEELKHNVSGFFLAGHDTTSETLSFYFYNIAKNKDVQRKLREELNAVLGDKPVDVIPTLEQLKSMEYLNCTIKENLRLNGPADNVLPRVATEDMVVDGTPIPKGTVVNVDIHAIHHDTRYWKDPYKFVPERFLPGGEHDSHSGMTWLPFGNGARQCLGMNFSLAEQRLVIAMTVRKYDIEVPKDSIHYDHPILESSKTKAPASLKLIFRKRY
Thebaine [2]
  Northebaine production: +

B6: CYPDN6: cytochrome P450 homolog A0A0B7NKC0 from Parasitella parasitica, codon-optimized (protein, listed as Parasitella parasitica)
chain: MAVLCLVLERIYASYAVPPSYLRHYPKVSLFDMLKSFYIKESVASRNKRLIAPLTNAGHGFYVCRIPLNWTIYVTDPLAAKTLLLKSENFPKNKAIFTALGDSSPVIKFMGKENVAMSNGEEWKKQRKIMNPAFHRSQPVKTFGNVMPDLFALIDQDPERVFITPKMKSFALDALGLSAFGFDFQSLKGDPEGWTRKYNVVISTLFNPFVNIFASLDFLVKYISPERRRVIKATDEFNSMLGELADKRRQEILDGEKKNIPENEKDLLTLMIEADIRDNIKTTTTELRHNMAIFFLAGHDSTANTLSLCLYNLAKHKHVQKKARQEVLAILGDEPLDVIPTAEDLKKLDYVNMVIKENLRRNGPADNLMSRDTQQDMNLNGTIIPKGSKVSVNVAAIHLNPKIWHDPENFIPERFEQGGEFEQHDGFTWIPFSNGSRQCLGLNFSLTEQRVVLCMILKRYEIDIPKDSIHYNEIVFDGAFTFAPQSLELSFKRRY
Thebaine [2]
  Northebaine production: +

B7: CYPDN7: cytochrome P450 homolog I1CBZ0 from Rhizopus delemar, codon-optimized (protein)
chain: MALEGALPLFQKRSKSSYIVAAILLITVKQIYSFFRVPTNLRHLPCVSFFAMAKSLLTCEPPYNRFKRITFPAIQEGNGFYVSKIPTGWTVYVANPVAAKQLLLKSNNFPKSHYGLDTIGEKSTAVQFVGRDNVVLSNGEIWKKQRKIMNPVFHRSMPIKTVASLVPLLFSAIEEANGRIMITPKMKDFTLDALGLTIFDFDFKALQGDPDNWTSIYRLITRSIFDPISYVFCALEPLLVYVYPKRRRSVDAVAKINAKFDQVISKKREELQNGIFSNKPDNEKDLVTLMLEAGMQEDVSITNEELRHNMAVLFLAGHDSTSNTLSFCLYHLAKNKRAQQKLREEIINILGDDDIDIVPSLEELKQMKYMNMVIKETLRLGMPLDLLTPRKTVEDTFVADTFIPKDTVIAVDAGALHRDPRSWKDPDEFVPERFEDDGEQNSHEGLTWVPFSNGTRQCIGMNFSLMEQRLTLTMLLRKYEVDLPKDSIHYDHIIYEQPSYVCPESLELIFTKRY
modifications: Rhizopus delemar
Thebaine [2]
  Northebaine production: +
